Key:
[1] = target: recombinant human VEGF165 (human, UniProt P15692 207-395); experiment: cell-based or functional assay
[2] = target: recombinant human PDGF-BB (human, UniProt P01127 82-190); experiment: cell-based or functional assay
recombinant human PDGF-BB, sequence (P01127 82-190 limits assumed): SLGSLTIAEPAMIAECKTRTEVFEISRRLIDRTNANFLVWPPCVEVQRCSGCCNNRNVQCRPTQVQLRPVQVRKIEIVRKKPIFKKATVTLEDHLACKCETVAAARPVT

recombinant human VEGF165, sequence (P15692 other isoform, or with tags, fused parts or gaps limits assumed): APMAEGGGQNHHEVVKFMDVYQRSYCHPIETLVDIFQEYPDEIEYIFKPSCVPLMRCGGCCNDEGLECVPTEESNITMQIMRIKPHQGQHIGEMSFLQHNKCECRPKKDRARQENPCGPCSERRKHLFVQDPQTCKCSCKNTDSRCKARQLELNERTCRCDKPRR

B1: 1B10.1_GS_CL-33675 (bispecific antibody, human IgG1, kappa, L234A L235A)
heavy: EVQLVESGGGLVQPGGSLRLSCAASGFSFSKYDMAWFRQAPGKGLEWVASITTSGVGTYYRDSVKGRFTVSRDNAKSTLYLQMNSLRAEDTAVYYCARGYGAMDAWGQGTTVTVSSGGGGSGGGGSEVTLRESGPALVKPTQTLTLTCTFSGFSLSTYGMGVGWIRQPPGKALEWLANIWWDDDKYYNPSLKNRLTISKDTSKNQVVLTMTNMDPVDTATYYCARIESSGPKYSFDYWGQGTMVTVSSASTKGPSVFPLAPSSKSTSGGTAALGCLVKDYFPEPVTVSWNSGALTSGVHTFPAVLQSSGLYSLSSVVTVPSSSLGTQTYICNVNHKPSNTKVDKKVEPKSCDKTHTCPPCPAPEAAGGPSVFLFPPKPKDTLMISRTPEVTCVVVDVSHEDPEVKFNWYVDGVEVHNAKTKPREEQYNSTYRVVSVLTVLHQDWLNGKEYKCKVSNKALPAPIEKTISKAKGQPREPQVYTLPPSREEMTKNQVSLTCLVKGFYPSDIAVEWESNGQPENNYKTTPPVLDSDGSFFLYSKLTVDKSRWQQGNVFSCSVMHEALHNAYTQKSLSLSPGK
light: DIQMTQSPSSLSASVGDRVTITCKASQDIDDYLSWYQQKPGKSPKLVIYAATRLADGVPSRFSGSGSGTDYTLTISSLQPEDFATYYCLQSSSTPWTFGGGTKVEIKGGSGGGGSGGEIVLTQSPGTLSLSPGERATLSCRASSGSIWYSFVSWYQQKPGQAPRLLIYADDQRASGIPDRFSGSGSGTDFTLTISRLEPEDFAVYYCQSYGINIDVVFGGGTKVEIKRTVAAPSVFIFPPSDEQLKSGTASVVCLLNNFYPREAKVQWKVDNALQSGNSQESVTEQDSKDSTYSLSSTLTLSKADYEKHKVYACEVTHQGLSSPVTKSFNRGEC
- Potency IC50 (nM) HMVEC-d hVEGF165 [1]: 0.05 nM
- Potency IC50 (nM) NIH-3T3 hPDGF-BB [2]: 0.037 nM

B2: 4G8.5_GS_3E2.1 (bispecific antibody, human IgG1, kappa, L234A L235A)
heavy: EIQLVQSGSELKKPGASVKVSCKASGYTFTNYGMYWVRQAPGQGLEYMGWINTETGKPTYADDFKGRFVFSLDTSVSTAYLQISSLKAEDTAVYFCARTNYYYRSYIFYFDYWGQGTMVTVSSGGGGSGGGGSEVQLVQSGAEVKKPGSSVKVSCKASGYTFTESYMYWVKQAPGQGLELIGRIDPEDGSTDYVEKFKNKATLTADKSTSTAYMELSSLRSEDTAVYFCARFGARSYFYPMDAWGQGTTVTVSSASTKGPSVFPLAPSSKSTSGGTAALGCLVKDYFPEPVTVSWNSGALTSGVHTFPAVLQSSGLYSLSSVVTVPSSSLGTQTYICNVNHKPSNTKVDKKVEPKSCDKTHTCPPCPAPEAAGGPSVFLFPPKPKDTLMISRTPEVTCVVVDVSHEDPEVKFNWYVDGVEVHNAKTKPREEQYNSTYRVVSVLTVLHQDWLNGKEYKCKVSNKALPAPIEKTISKAKGQPREPQVYTLPPSREEMTKNQVSLTCLVKGFYPSDIAVEWESNGQPENNYKTTPPVLDSDGSFFLYSKLTVDKSRWQQGNVFSCSVMHEALHNAYTQKSLSLSPGK
light: ATQLTQSPSLSASVGDRVTITCRASESVSTHMHWYQQKPGKQPKLLIYGASNLESGVPSRFSGSGSGTDFTLTISSLQPEDFATYFCQQSWNDPFTFGQGTKLEIKGGSGGGGSGGETVLTQSPATLSLSPGERATLSCRASESVSTLMHWYQQKPGQQPRLLIYGASNLESGVPARFSGSGSGTDFTLTISSLEPEDFAVYFCQQSWNDPWTFGGGTKVEIKRTVAAPSVFIFPPSDEQLKSGTASVVCLLNNFYPREAKVQWKVDNALQSGNSQESVTEQDSKDSTYSLSSTLTLSKADYEKHKVYACEVTHQGLSSPVTKSFNRGEC
- Potency IC50 (nM) HMVEC-d hVEGF165 [1]: 0.072 nM
- Potency IC50 (nM) NIH-3T3 hPDGF-BB [2]: 1.4 nM

B3: 9E10.1_GS_3E2.1 (bispecific antibody, human IgG1, kappa, L234A L235A)
heavy: EIQLVQSGSELKKPGASVKVSCKASGYTFTNYGMYWVKQAPGQGLEYMGWIDTETGRPTYADDFKGRFVFSLDTSVSTAYLQISSLKAEDTAVYFCARWSGDTTGIRGPWFAYWGQGTLVTVSSGGGGSGGGGSEVQLVQSGAEVKKPGSSVKVSCKASGYTFTESYMYWVKQAPGQGLELIGRIDPEDGSTDYVEKFKNKATLTADKSTSTAYMELSSLRSEDTAVYFCARFGARSYFYPMDAWGQGTTVTVSSASTKGPSVFPLAPSSKSTSGGTAALGCLVKDYFPEPVTVSWNSGALTSGVHTFPAVLQSSGLYSLSSVVTVPSSSLGTQTYICNVNHKPSNTKVDKKVEPKSCDKTHTCPPCPAPEAAGGPSVFLFPPKPKDTLMISRTPEVTCVVVDVSHEDPEVKFNWYVDGVEVHNAKTKPREEQYNSTYRVVSVLTVLHQDWLNGKEYKCKVSNKALPAPIEKTISKAKGQPREPQVYTLPPSREEMTKNQVSLTCLVKGFYPSDIAVEWESNGQPENNYKTTPPVLDSDGSFFLYSKLTVDKSRWQQGNVFSCSVMHEALHNAYTQKSLSLSPGK
light: DIRMTQSPSSLSASVGDRVTIECLASEDIYSDLAWYQQKPGKSPKLLIYNANGLQNGVPSRFSGSGSGTDYSLTISSLQPEDVATYFCQQYNYFPGTFGQGTKLEIKGGSGGGGSGGETVLTQSPATLSLSPGERATLSCRASESVSTLMHWYQQKPGQQPRLLIYGASNLESGVPARFSGSGSGTDFTLTISSLEPEDFAVYFCQQSWNDPWTFGGGTKVEIKRTVAAPSVFIFPPSDEQLKSGTASVVCLLNNFYPREAKVQWKVDNALQSGNSQESVTEQDSKDSTYSLSSTLTLSKADYEKHKVYACEVTHQGLSSPVTKSFNRGEC
- Potency IC50 (nM) HMVEC-d hVEGF165 [1]: 0.054 nM
- Potency IC50 (nM) NIH-3T3 hPDGF-BB [2]: 5.72 nM

B4: 9E10.6_GS_3E2.1 (bispecific antibody, human IgG1, kappa, L234A L235A)
heavy: EVQLVQSGAEVKKPGSSVKVSCKASGYTFTNYGMYWVRQAPGQGLEWMGWIDTETGRPTYADDFKGRFTFTADKSTSTAYMELSSLRSEDTAVYYCARWSGDTTGIRGPWFAYWGQGTLVTVSSGGGGSGGGGSEVQLVQSGAEVKKPGSSVKVSCKASGYTFTESYMYWVKQAPGQGLELIGRIDPEDGSTDYVEKFKNKATLTADKSTSTAYMELSSLRSEDTAVYFCARFGARSYFYPMDAWGQGTTVTVSSASTKGPSVFPLAPSSKSTSGGTAALGCLVKDYFPEPVTVSWNSGALTSGVHTFPAVLQSSGLYSLSSVVTVPSSSLGTQTYICNVNHKPSNTKVDKKVEPKSCDKTHTCPPCPAPEAAGGPSVFLFPPKPKDTLMISRTPEVTCVVVDVSHEDPEVKFNWYVDGVEVHNAKTKPREEQYNSTYRVVSVLTVLHQDWLNGKEYKCKVSNKALPAPIEKTISKAKGQPREPQVYTLPPSREEMTKNQVSLTCLVKGFYPSDIAVEWESNGQPENNYKTTPPVLDSDGSFFLYSKLTVDKSRWQQGNVFSCSVMHEALHNAYTQKSLSLSPGK
light: DIRMTQSPSSLSASVGDRVTITCLASEDIYSDLAWYQQKPGKSPKLLIYNANGLQNGVPSRFSGSGSGTDYTLTISSLQPEDVATYFCQQYNYFPGTFGQGTKLEIKGGSGGGGSGGETVLTQSPATLSLSPGERATLSCRASESVSTLMHWYQQKPGQQPRLLIYGASNLESGVPARFSGSGSGTDFTLTISSLEPEDFAVYFCQQSWNDPWTFGGGTKVEIKRTVAAPSVFIFPPSDEQLKSGTASVVCLLNNFYPREAKVQWKVDNALQSGNSQESVTEQDSKDSTYSLSSTLTLSKADYEKHKVYACEVTHQGLSSPVTKSFNRGEC
- Potency IC50 (nM) HMVEC-d hVEGF165 [1]: 0.06 nM
- Potency IC50 (nM) NIH-3T3 hPDGF-BB [2]: 1.32 nM

Source: patent publication US20170015742A1 (published 2017)
